Target: T1, monomeric teal fluorescent protein 1 (mTFP1), N-terminally hexa-His-SBP-tagged
T1 construct: mTFP1, engineered monomeric teal fluorescent protein (Ai et al., 2006); PDB 2HQK is the cited mTFP1 structure; also called SBP-tagged mTFP1; source: E. coli BL21(DE3), purified (Ni-NTA)
Assay: fluorescence polarisation; fluorescence anisotropy; constant 15 nM mTFP1 titrated with a dilution series of DARPin; non-linear fit
Conditions: both partners purified

B1: DARPin 1238_G01 (N-terminal His8, C-terminal FLAG) (designed binder)
chain: GSDLGKKLLEAARAGQDDEVRILMANGADVNAEDWMGATPLHLAAQSGHLEIVEVLLKTGADVNAHDAFGWTPLHLAASQGHLEIVEVLLKAGADVNATDMVGRTPLHLAARRGHLEIVEVLLKHGADVNAQDKFGKTPFDLAIDNGNEDIAEVLQKAAKLN
modifications: N-terminal MRGS-His8 and C-terminal FLAG tags left out; the GP cloning residues of the crystal construct are also left out
**Q.** For B1, which Kd is on record?
**A.** The Kd was about 88 nM.

— publication PMC6262872, “DARPins recognize mTFP1 as novel reagents for in vitro and in vivo protein manipulations” (Biology Open, 2018)
